Assay results as given in patent US20200340060A1, “COMPOSITIONS AND METHODS FOR IDENTIFYING AND TREATING LIVER DISEASES AND MONITORING TREATMENT OUTCOMES” (Gilead Sciences, Inc., priority 2017, published 2020).

Tested on: liver fibrosis in NASH subjects
Experiment: Simtuzumab clinical studies (SIM 0105/0106) in NASH, CRN fibrosis stage change at week 48
Type: in vivo, human
Details: SIM study samples

B1: simtuzumab (antibody, chains of the INN, looked up, V domains shown)
VH: QVQLVQSGAEVKKPGASVKVSCKASGYAFTYYLIEWVRQAPGQGLEWIGVINPGSGGTNYNEKFKGRATITADKSTSTAYMELSSLRSEDTAVYFCARNWMNFDYWGQGTTVTVSS
VL: DIVMTQTPLSLSVTPGQPASISCRSSKSLLHSNGNTYLYWFLQKPGQSPQFLIYRMSNLASGVPDRFSGSGSGTDFTLKISRVEAEDVGVYYCMQHLEYPYTFGGGTKVEIK
efficacy on fibrosis stage change: lack of efficacy
